Experimental data reported in patent US20260209320A1 (ALCHEMAB THERAPEUTICS, published 2026).
Positions count from the first letter of the chain named. Where no end group is shown, it is not given here.

T1: Murine HTT antigen (murine)
T1 construct: antigen of the murine HTT direct ELISA; also called murine HTT protein
T1 chain: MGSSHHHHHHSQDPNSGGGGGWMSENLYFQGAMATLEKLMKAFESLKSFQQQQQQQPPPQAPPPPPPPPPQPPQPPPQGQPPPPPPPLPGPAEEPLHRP

T2: biotinylated GYSLPQPQPPPPPPPPPP peptide (also: biotinylated, position not given here)
T2 construct: also called HTT exon1 in the form of biotinylated peptide
T2 peptide: GYSLPQPQPPPPPPPPPP

T3: human lysozyme (human, UniProt P61626 19-148)
T3 sequence (looked up): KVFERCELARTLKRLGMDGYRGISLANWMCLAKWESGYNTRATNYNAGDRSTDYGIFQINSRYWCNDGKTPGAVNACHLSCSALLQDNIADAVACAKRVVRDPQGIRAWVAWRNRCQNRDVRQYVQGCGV

B1: ATL_0005895 (antibody, V domains shown)
VH: EVQLVESGGGLVKPGGSLRLSCAASGFTFNKAWMSWVRQAPGKGLEWVGRIKSGIDAGTTDYAAPVKGRFTISRDDSKNTLYLQMNSLKTEDTAVYYCIPPPYYYYYGLDVWGQGTTVTVSS
VL: QSALTQPRSVSGSPGQSVTISCTGTSSDVGSYNLVSWYQQHPGKAPKLMIYEVNKRPSGVPDRFSGSKSGATASLTISGLQAEDEADYYCGSYAGTANVFGTGTKVTVL
notes: human IgG1; also called ATL_5895; ATL5895
B2: ATL_0005901 (antibody, V domains shown)
VH: B1 VH with N79A
VL: QSALTQPASVSGSPGQSITISCTGTSSDVGGYKLVSWYQQHPGRAPKLMIYEVSKRPSGVSSRFSGSKSGSTASLTISGLQAEDEADYYCSSYAGSSVVFGGGTKLTVL
notes: human IgG1; also called ATL_5901; ATL5901
B3: ATL_0005567 (antibody, V domains shown)
VH: B1 VH with S35N, A57G, K67Q, L81V, K89N
VL: QSALTQPASVSGSPGQSITISCTGTSSDIGSYNLVSWYQQHPGNAPKPLIYEGSKRPSGVSARFSGSKSGNTASLTISGLQPEDEADYYCSSYAGFSTLVFGGGTKVTVL
notes: human IgG1; also called ATL_5567; ATL5567
B4: ATL_0005059/NI-302.8F1 (antibody, V domains shown)
VH: EVQLVESGGGLVKPGGSLTISCAASGFTFSNAWMNWVRQAPGKGLEWVGHIRTQAEGGTSDYAAPVKGRFTISRDDSKNTLYLQMNSLKTEDTAVYYCIPPPYYYYYGLDVWGQGTTVTVSS
VL: QSALTQPASVSGSPGQSITISCTGASSDVGTYDLVSWYQQHPGKAPKLIIYEVNKRPSGVSYRFSASKSANTASLTISGLQAEDEAEYYCCSYAGYSTVFGGGTKLTVL
notes: also called ATL_5059; CA_0000274
B5: ATL_0005334 (antibody, V domains shown)
VH: B1 VH with S35N, A57G, K67Q, L81V, K89N
VL: B2 VL with S91C
notes: human IgG1; also called ATL_5334
B6: ATL_0006183 (antibody, V domains shown)
VH: EVQLVESGGGLVKPGGSLRLSCAASGFTFNKAWMSWVRQAPGKGLEWVGRIKSGIDAGTTDYAAPVKGRFTISRDDSKNTLYLQMNSLKTEDTAVYYCTPPPYYYYGLDVWGQGTTVTVSS
VL: B1 VL
notes: HD patient (ENBB) HCDR3 in ATL5895 VH, ATL5895 VL; also called ATL_6183; ATL6183
B7: ATL_0006185 (antibody, V domains shown)
VH: B6 VH with D109N
VL: B1 VL
notes: HD patient (ENBB) HCDR3 in ATL5895 VH, ATL5895 VL; also called ATL_6185; ATL6185
B8: ATL_0006184 (antibody, V domains shown)
VH: B6 VH with N79A
VL: B2 VL
notes: HD patient (ENBB) HCDR3 in ATL5901 VH, ATL5901 VL; also called ATL_6184; ATL6184
B9: ATL_0006186 (antibody, V domains shown)
VH: B6 VH with N79A, D109N
VL: B2 VL
notes: HD patient (ENBB) HCDR3 in ATL5901 VH, ATL5901 VL; also called ATL_6186; ATL6186
B10: ATL_0006195 (antibody, V domains shown)
VH: B1 VH with I99T
VL: B1 VL
notes: expressed in IgG1 format; also called ATL_6195
B11: ATL_0006199 (antibody, V domains shown)
VH: B1 VH with Y97W, I99S
VL: B1 VL
notes: expressed in IgG1 format; also called ATL_6199
B12: ATL_0006200 (antibody, V domains shown)
VH: B1 VH with I99V
VL: B1 VL
notes: expressed in IgG1 format; also called ATL_6200
B13: ATL_0006203 (antibody, V domains shown)
VH: B1 VH with P101S
VL: B1 VL with G91V
notes: expressed in IgG1 format; also called ATL_6203
B14: ATL_0006204 (antibody, V domains shown)
VH: B1 VH
VL: B1 VL with G91V, Y93F
notes: expressed in IgG1 format; also called ATL_6204
B15: ATL_0006205 (antibody, IgG1, V domains shown)
VH: B1 VH with Y97W, I99V
VL: B1 VL with G91V
notes: IgG1 format; also called ATL_6205
B16: ATL_0006374 (antibody, V domains shown)
VH: B1 VH with Y97W, I99V
VL: B1 VL with G91V, A94G, A97E
notes: also called ATL_6374; ATL 6374
B17: ATL_0006194 (antibody, V domains shown)
VH: B1 VH with I99V
VL: B1 VL with G91V
notes: expressed in IgG1 format; also called ATL_6194; ATL6194
B18: ATL_0006202 (antibody, IgG1, V domains shown)
VH: B1 VH with I99S, Y103F
VL: B1 VL with G91V, A94G, A97E
notes: IgG1 format; also called ATL_6202
B19: ATL_0006375 (antibody, V domains shown)
VH: B1 VH with I99V
VL: B1 VL with G91V, A94G, A97E
notes: also called ATL_6375
B20: ATL_0006376 (antibody, V domains shown)
VH: B1 VH with I99V, Y103F
VL: B1 VL with G91V, A94G, A97E
notes: also called ATL_6376
B21: ATL_0006377 (antibody, V domains shown)
VH: B1 VH with I99V, P101S
VL: B1 VL with G91V
notes: also called ATL_6377
B22: ATL_0006378 (antibody, V domains shown)
VH: B1 VH with I99V, P101S
VL: B1 VL with G91V, A94G, A97E
notes: also called ATL_6378; ATL 6378

biological target: T4, WT Human HTT Exon 1 25Q (GST) (human); experiment: HTT sandwich ELISA, biological repeat 3
T4 construct: recombinant His- and GST-tagged fusion; also called Wild type Huntingtin (HTT) exon 1
T4 sequence (chain, as listed by the source limits assumed, change not shown): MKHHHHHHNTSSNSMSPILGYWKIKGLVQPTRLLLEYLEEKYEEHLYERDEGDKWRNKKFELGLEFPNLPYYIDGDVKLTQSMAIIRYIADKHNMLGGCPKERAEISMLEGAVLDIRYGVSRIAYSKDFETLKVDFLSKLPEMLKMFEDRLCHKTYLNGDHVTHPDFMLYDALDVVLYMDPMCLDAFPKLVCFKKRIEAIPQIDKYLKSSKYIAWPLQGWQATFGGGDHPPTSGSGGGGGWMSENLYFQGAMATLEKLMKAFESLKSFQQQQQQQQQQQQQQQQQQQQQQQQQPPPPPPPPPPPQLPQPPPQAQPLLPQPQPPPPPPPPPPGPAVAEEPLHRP

Binder | EC50
B1 | 4.39 nM
B2 | 4.73 nM
B3 | 5.95 nM

Biological target: T1, Murine HTT antigen
Experiment: direct ELISA on coated murine HTT antigen

Binder | binding result
B1 | binds

biological target: T5, Mutant Human HTT Exon 1 48Q (GST) (human); experiment: HTT sandwich ELISA, biological repeat 2
T5 construct: recombinant His- and GST-tagged fusion; also called HTT Exon 1 Q48; 48Q HTT Exon-1
T5 sequence (chain, as listed by the source mutant limits assumed): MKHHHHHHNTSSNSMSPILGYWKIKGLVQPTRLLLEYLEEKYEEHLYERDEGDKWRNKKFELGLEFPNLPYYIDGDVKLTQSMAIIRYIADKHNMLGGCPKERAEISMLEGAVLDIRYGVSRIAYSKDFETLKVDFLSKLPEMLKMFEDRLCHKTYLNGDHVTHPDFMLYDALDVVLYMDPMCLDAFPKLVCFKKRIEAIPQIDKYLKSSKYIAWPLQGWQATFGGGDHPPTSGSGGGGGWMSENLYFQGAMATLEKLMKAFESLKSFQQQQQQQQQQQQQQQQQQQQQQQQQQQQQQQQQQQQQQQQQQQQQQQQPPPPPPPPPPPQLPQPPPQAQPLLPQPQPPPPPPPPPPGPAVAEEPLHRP

Binder | EC50
B1 | 3.83 nM
B3 | 6.55 nM
B4 | 16.2 nM

biological target: T5, Mutant Human HTT Exon 1 48Q (GST); experiment: HTT sandwich ELISA; EC50 on HTT Exon 1 25Q over EC50 on HTT Exon 1 48Q

Binder | Ratio of EC50 for 25Q:48Q HTT Exon 1
B1 | 1.79
B2 | 2.05
B3 | 1.18
B4 | 1.12

biological target: T4, WT Human HTT Exon 1 25Q (GST); experiment: HTT sandwich ELISA, biological repeat 1

Binder | EC50
B1 | 2.97 nM
B2 | 5.59 nM

biological target: T5, Mutant Human HTT Exon 1 48Q (GST); experiment: ELISA

Binder | binding result
B5 | binds

biological target: T4, WT Human HTT Exon 1 25Q (GST); experiment: HTT sandwich ELISA, average of repeats

Binder | EC50
B1 | 3.71 nM
B2 | 4.92 nM
B3 | 7.57 nM

biological target: T5, Mutant Human HTT Exon 1 48Q (GST); experiment: HTT sandwich ELISA, biological repeat 1

Binder | EC50
B1 | 0.731 nM
B2 | 1.25 nM
B3 | 8.7 nM
B4 | 18.1 nM

biological target: T5, Mutant Human HTT Exon 1 48Q (GST); experiment: HTT sandwich ELISA

Binder | EC50
B6 | 9.2 nM
B7 | 7.31 nM
B8 | 10.1 nM
B9 | 11.1 nM

biological target: T4, WT Human HTT Exon 1 25Q (GST); experiment: HTT sandwich ELISA, biological repeat 2

Binder | EC50
B1 | 3.91 nM
B2 | 4.52 nM
B3 | 9.63 nM
B4 | 19.3 nM

biological target: T5, Mutant Human HTT Exon 1 48Q (GST); experiment: HTT sandwich ELISA, average of repeats

Binder | EC50
B1 | 2.08 nM
B2 | 2.4 nM
B3 | 6.39 nM
B4 | 17.3 nM

biological target: T4, WT Human HTT Exon 1 25Q (GST); experiment: HTT sandwich ELISA, average (one repeat assessed)

Binder | EC50
B4 | 19.3 nM

biological target: T5, Mutant Human HTT Exon 1 48Q (GST); experiment: HTT sandwich ELISA, biological repeat 3

Binder | EC50
B1 | 3.2 nM
B2 | 4.59 nM
B3 | 4.59 nM
B4 | 17.5 nM

Biological target: T2, biotinylated GYSLPQPQPPPPPPPPPP peptide
Experiment: BLI (Octet), biotinylated peptide on streptavidin biosensor

Binder | binding result
B10 | binds
B11 | binds
B12 | binds
B13 | binds
B14 | binds
B15 | binds
B16 | binds
B17 | binds
B18 | binds

biological target: T5, Mutant Human HTT Exon 1 48Q (GST); experiment: HTT sandwich ELISA; remark: another data set of the same source

Binder | EC50
B16 | 31.1 nM
B19 | 20.1 nM
B20 | 11.5 nM
B21 | 23.8 nM
B22 | 38.9 nM

biological target: T5, Mutant Human HTT Exon 1 48Q (GST); experiment: HTT sandwich ELISA, experiment 2 (400 nM starting concentration)

Binder | EC50
B10 | 14.7 nM
B11 | 13.1 nM
B12 | 9.75 nM
B13 | 8.72 nM
B14 | 12.2 nM
B15 | 16.4 nM
B17 | 14 nM
B18 | 13.5 nM

biological target: T6, CACNA1A (human, UniProt O00555 1-2506); experiment: Retrogenix cell microarray, HEK293 cells
T6 construct: whole, on cells; also called Another poly Q protein
T6 sequence (O00555 whole entry): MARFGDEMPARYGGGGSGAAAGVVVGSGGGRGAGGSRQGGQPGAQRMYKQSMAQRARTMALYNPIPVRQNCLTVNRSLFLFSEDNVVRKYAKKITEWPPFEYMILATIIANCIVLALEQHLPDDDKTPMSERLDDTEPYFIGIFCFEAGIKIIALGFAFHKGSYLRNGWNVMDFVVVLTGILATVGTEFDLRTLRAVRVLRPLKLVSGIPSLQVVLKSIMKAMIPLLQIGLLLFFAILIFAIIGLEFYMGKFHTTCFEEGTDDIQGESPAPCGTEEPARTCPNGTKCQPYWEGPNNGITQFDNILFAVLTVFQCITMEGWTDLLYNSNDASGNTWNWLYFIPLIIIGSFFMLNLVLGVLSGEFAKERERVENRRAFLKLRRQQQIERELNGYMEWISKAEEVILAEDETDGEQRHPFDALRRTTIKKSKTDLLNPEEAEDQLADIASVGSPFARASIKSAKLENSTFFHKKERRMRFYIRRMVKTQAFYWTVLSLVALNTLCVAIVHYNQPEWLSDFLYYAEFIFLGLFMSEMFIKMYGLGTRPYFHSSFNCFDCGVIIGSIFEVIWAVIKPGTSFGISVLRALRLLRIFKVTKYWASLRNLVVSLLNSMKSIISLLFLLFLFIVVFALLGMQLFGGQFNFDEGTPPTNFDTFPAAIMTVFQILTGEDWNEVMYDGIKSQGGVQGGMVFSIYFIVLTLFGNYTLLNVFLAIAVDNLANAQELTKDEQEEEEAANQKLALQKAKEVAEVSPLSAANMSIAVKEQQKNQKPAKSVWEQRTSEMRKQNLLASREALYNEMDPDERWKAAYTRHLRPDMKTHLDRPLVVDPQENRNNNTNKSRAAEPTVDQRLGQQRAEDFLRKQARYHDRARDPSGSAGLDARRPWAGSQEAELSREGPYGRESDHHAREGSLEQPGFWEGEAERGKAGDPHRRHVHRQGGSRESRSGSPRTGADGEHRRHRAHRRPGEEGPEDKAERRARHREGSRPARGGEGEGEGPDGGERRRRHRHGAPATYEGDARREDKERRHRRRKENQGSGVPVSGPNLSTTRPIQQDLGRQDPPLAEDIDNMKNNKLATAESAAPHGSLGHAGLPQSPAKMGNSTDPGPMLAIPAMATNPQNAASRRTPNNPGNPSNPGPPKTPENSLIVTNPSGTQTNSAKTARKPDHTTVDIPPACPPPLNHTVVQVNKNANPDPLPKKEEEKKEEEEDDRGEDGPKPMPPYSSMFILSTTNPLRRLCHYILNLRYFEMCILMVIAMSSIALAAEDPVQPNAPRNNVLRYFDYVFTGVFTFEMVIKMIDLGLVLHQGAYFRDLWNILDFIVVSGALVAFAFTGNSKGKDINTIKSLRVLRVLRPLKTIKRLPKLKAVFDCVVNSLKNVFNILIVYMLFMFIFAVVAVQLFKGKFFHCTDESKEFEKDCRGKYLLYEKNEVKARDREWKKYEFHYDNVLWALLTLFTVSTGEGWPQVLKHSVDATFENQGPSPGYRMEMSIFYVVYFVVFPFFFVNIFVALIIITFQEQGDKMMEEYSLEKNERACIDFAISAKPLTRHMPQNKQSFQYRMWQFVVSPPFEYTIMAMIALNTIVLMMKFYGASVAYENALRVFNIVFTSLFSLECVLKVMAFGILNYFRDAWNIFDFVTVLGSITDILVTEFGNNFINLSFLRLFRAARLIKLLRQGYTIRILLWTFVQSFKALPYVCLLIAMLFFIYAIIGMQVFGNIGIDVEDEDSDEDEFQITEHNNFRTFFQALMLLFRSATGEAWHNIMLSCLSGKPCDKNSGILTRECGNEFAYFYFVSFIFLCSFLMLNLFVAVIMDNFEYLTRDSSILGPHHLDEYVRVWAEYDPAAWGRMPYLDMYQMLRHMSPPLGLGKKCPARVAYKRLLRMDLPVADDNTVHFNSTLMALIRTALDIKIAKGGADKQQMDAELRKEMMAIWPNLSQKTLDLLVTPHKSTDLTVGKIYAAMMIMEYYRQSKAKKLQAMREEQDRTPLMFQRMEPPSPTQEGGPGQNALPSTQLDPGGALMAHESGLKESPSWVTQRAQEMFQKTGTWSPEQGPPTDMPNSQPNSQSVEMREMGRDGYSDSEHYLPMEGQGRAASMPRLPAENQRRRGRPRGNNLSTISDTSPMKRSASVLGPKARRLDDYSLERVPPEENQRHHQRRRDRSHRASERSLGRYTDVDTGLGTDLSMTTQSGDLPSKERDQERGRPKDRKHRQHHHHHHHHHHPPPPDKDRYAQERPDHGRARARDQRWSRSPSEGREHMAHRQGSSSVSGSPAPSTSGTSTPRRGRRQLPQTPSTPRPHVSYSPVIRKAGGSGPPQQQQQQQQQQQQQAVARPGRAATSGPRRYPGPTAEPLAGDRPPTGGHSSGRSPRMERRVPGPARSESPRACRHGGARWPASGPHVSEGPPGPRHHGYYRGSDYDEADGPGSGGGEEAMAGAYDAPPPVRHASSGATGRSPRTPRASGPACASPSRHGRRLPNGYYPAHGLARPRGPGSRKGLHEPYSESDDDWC

Binder | binding result
B1 | no binding (tested: 2 µg/mL antibody)
B3 | no binding (tested: 5 µg/mL antibody)

biological target: T5, Mutant Human HTT Exon 1 48Q (GST); experiment: HTT sandwich ELISA, experiment 1 (133 nM starting concentration)

Binder | EC50
B10 | 21.1 nM
B11 | 15 nM
B12 | 12.8 nM
B13 | 8.91 nM
B14 | 16.2 nM
B15 | 13.4 nM
B17 | 19.8 nM

biological target: T3, human lysozyme; experiment: direct ELISA

Binder | binding result
B1 | no binding (tested: less than 1 µM)
B20 | no binding (tested: less than 1 µM)
B21 | no binding (tested: less than 1 µM)
